# Assay results as given in the nanobody polyreactivity screen of Harvey et al. (2022).
# Experiment: yeast display, Sf9 membrane polyspecificity reagent, FACS + sequencing; frameworks hold sequencing errors
# Procedure, shortened: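 Sorting gates, low and high (top ~1%), were placed on anti-HA fluorescence to track expression and on streptavidin fluorescence to track reagent binding. A clone's polyreactivity label is taken from the gate it came out of. The reagent was 10% biotinylated, detergent-solubilized Sf9 membrane, applied for 1 hour at 4 °C to galactose-induced yeast display cells.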
row,Sequence,polyreactivity (PSR sort gate)
1,QVQLVESGGGLVQAGGSLRLSCAASGSISVYNAMGWYRPAPGKERELVAAISWSGGRTSYADSVKGRFTISRDHAKNTVYLQMNSLKPEDTAVYYCAADELSVLWDEDYWGQVTQVTVSS,low polyreactivity
2,QVQLVESGGGLVQAGGSLRLSCAGSGSTLTWNDMGWYRHAPGKERELVASITQSGDSTYYADSVKGRFTISRDNAKNTVYLQMNSLKPEDTAVYYCSGVYTYPLGYYHYTYDYWGQGTQVTVSS,low polyreactivity
3,QVQLVESGGGLVQAGGSLRLSCAASGIIFPKYVMGWYRKAPGKERELVAAISWSGTSTYYADSVKGRFTISRDNAKNTVYLQMNSLKPEDTAVYYCAARWSSTTGRFDYWGQGTQVTVSS,high polyreactivity
4,QVQLVESGGGLVQAGGSLRLSCAAYGIIFYLYAMGWYRTAPGKERELVAAITWNGGRTYYADSVKGRFTISRDNAKNTVYLQMNSLKPEDTAVYYCNTDRRWRGTYTTRYDYWGQGTQVTVSS,low polyreactivity
5,QVQLVESGGGLVQAGGSLRLSCAASGRTFAGNAMGWYRQAPGKERELVAAISQGGGSTYYADSVKGRFTISRDNAKNTVYLQMNSLKPEDTAVYYCAAEIPRRWASFATLWYDYWGQGTQVTVSS,low polyreactivity
6,QVQLVESGGGLVQAGGSLRLSCAASGSIFIGYAMGWYRQAPGKERELVAAISWSGDSTYYADSVKGRFTISRDNAKNTVYLQMNSLKPEDTAGYYCAADDLDYDNYYQITGEYDYWGQGTQVTVSS,high polyreactivity
7,QVQLVESGGGLVQAGASLRLSCAASGSIFIYYAMGWYRQAPGKERELVAAISGGGRTNYADSVKGRFTISRDNAKNTVYLQMNSLKPEDTAVYYCAADPVYWYSTMDFWGQGTQVTVSS,low polyreactivity
8,QVQLVESGGGLVQAGGSLRLSCAASRIIFTHNAMGWYRQAPGKERELVAAISWSGGSTYYADSVNGRFTISRDNAKNTVYIEMNSLKPEDTAVYYCAAPYFTYGQDDDDYWGQGTQVTVSS,low polyreactivity
9,QVQLVESGGGLVQAGGSLRLSCAASGFTFYYYVMGWSRQAPGKERELVAAITRSGGSTYYADSVKGRFTISRDNAKNTVYLQMNSLKPEDTAVYYCNAYVPPKAASAAYDYWGQGTQVTVSS,high polyreactivity
10,QVQLVESGGGLVQAGGSLRLSCAASGRTFGFNAMGWYRQAPGKERELVAAISGSGGRTYYADSVKGRFTISRDNAKNTVYLQMNSLKPEDTAVYYCAAGARRGGSGYWGQGTQVTVSS,high polyreactivity
11,QVQLVESGGGLVQAGGSLRLSCAASGNILGYNAMGWYRQAPGKERELVAAISWIGGSTYYADSVKGRFTISRDNAKNTVYLQMNSLKPEDTAVYYCAARYRTYFTYEFWGQGTQVTVSS,low polyreactivity
12,QVQLVESGGGLVQAGGSLRLSSAASGRTFVNYTMGWYRQAPGIERELVAAITSSGGSTYYADSVKGRFTISRDNAKNTVYLQMNSLKPEDTAVYYCAAAKFDLSFWLYYWGQGTQVTVSS,low polyreactivity
13,QVQLVESGGRLVQAGGSLRLSCAASGSTSTLYAMGWYRQAPGKERELVAAISKSGGRTYYADSVKGRFTISRDNAKNTVYLQMNSLKPEDTAVYYCNTVPGRYRTFDYWGQGTQVTVSS,high polyreactivity
14,QVQLVESGGGLVQAGGSLRLSCAASGSNFVRNVMGWYRQAPGKERELVAGISWNGGSTFYADSVKGRFTISRDNAKNTVYLQMNCLKPEDTAVYYCATPYGRHGWFYLYDYWGQGTLVTVSS,low polyreactivity
15,QVQLVESGGGLVQAGGSLRLSCAAYGSIFETYVMGWYRQAPGKERELVAAINSGGSTNYADSVKGRFTISRDNAKNTVYLQMNSLKPEDTAVYYCNADWFTPAQPWYRYFIRYDYWGQGTQVTVSS,low polyreactivity
16,QVQLVESGGGLVQAGGSLRLSCAASGSTFNINVMGWYRQAPGKERELVASISTGDITYYADSVKGRFTISRDNAKNTVYLQMNSLKPEDTAVYYCNAEDDLYWWVWYAVGEEYWGQGTQVTVSS,low polyreactivity
17,QVQLVDSGGGLVQAGGSLRLSCAASGSIFRYKAMGWYRQAPGKERELVAAISWSGGRTYYADSVKGRFTISRDNAKNTVYLQMNSLKPEDTAVYYCAAAWYSSSRYQGIYRFAYWGQGTQVTVSS,high polyreactivity
18,QVQLVESGGGLVQAGGSLRLSCAASGRIFLRNDMGWYRQAPGKERELFAGISSDGSTYYADSVKGRFTISRDNAKNTVYLQMNSLKPEDTAVYYCAAERWGNPTDYQFWRPYDYWGQGTKVTVSS,low polyreactivity
19,QVQHVESGGGLVQAGVSLRLSCAATGRIFGRYVMGWYRQAPGKETELVARIRRNVGSTYYADSVKGRFTISRDNAKYPVYLQMNSLKPEDTAVYYCAAESYDTWRRYESWGQGTQVTVSS,high polyreactivity
20,QVKLVESGGRLVQAGGSLRLSCAASGFTNYAMGWNRQAPGKERELVAAITLSDASTYYADSVKGRFTISRDNAKNTVYLQMNSLKPEDTAVDYCAAKGGRSKSGARALGYWGQGTHVTVSS,low polyreactivity
21,QVQLVESGGGLVQAGGSLRLSCGAYGLTFTYNTMGWYRPAPGKERELVAAITSSGGRTYYADSVKGRFTISRDHAKNTVYFQMNSLKPEDTAVYYCAKTKYYPKRDYYWGQGTLVTVSS,high polyreactivity
22,QVQLVESGGGLVQAGGSLRLSCAASGRTFRYHAMGWYRQAPGKERELVAGISWSGTSTYYADSVKGRFTISRDNAKNTVYLQMNSLKPEDTAVYYCNAVFRYRYDYWGQGTQVTVSS,high polyreactivity

row,Sequence,polyreactivity (PSR sort gate)
1,QVQLVESGGGLVQAGGSLRLSCAASGRIFATNAMGWYRQAPGKERELVAAISDGGGSTYYADSVKGRFTISRDNAKNTVYLQMNSLKPEDTAVYYCAARVLDWRGDIHDSEYWGQGTQVTVSS,low polyreactivity
2,QDQLVESGGGLVQAGGSLRLSCAASGSTIRANAMGWYRQATGKERELVAAITKNGGSTYYADSVKGRFTISRDNAKNTVYLQMNSLKPEDTAVYYCAARRSSRRPPYYYWGQGTQVTVSS,high polyreactivity
3,QVQLVESGGGLVQAGGSLRLSCAASGFTFYNYAMGWYRQAPGKERELVAVISRSGGRTKYADSVKGRFTISRDNAKNTVYLQMNSLKPEDTAVYYCAARPSPGYYAYRYAPAIHYDYWGQGTQVTVSS,high polyreactivity
4,QVQLVESGGGLVQAGGSLRLSCAASGLTFQKNVMGWYRQAPGKERELVAAIRASSSSTYYADSVKGRFTISRDNAKNTVYLQMNSLKPEDTAVYYCAAPRLIKYDYWGQGTQVTVSS,high polyreactivity
5,QVQLVESGGGLVQAGGSLRLSCAASGSTFGGNAMGWYRQAPGKERELVAAIDSGGGTNYADSVKGRFTISRDNAKNTVYLQMNSLKPEDTAVYYCNADWAVRSTQNSSSGHVYWGQGTQVTVSS,low polyreactivity
6,QVQLVESGGGLVQAGGSLRLSCAASGFTFVGYAMGWYRQAPGKESELVAAITSSGGSTYYADSVKGRFTISRDNAKNTVYLQMNSLKPEDTAVYYCAAPAPVLSTQKRFDSWGQGTQVTVSS,low polyreactivity
7,QVQLVESGGGLVQAGGSLRLSCAASGRILSLYAMGWYRPPPGKERELVAAIRWSGSRTYYADSVKGRFTISRDNAKNTVYLQMNSLKPEDTAVYYCNAWYRLLRSSDYYWGQGTQVTVSS,high polyreactivity
8,QVQLVESGGGLVQAGGSLRLSCAASGFTFTWNTMGWYRQAPGKERELVAAITKSAGSTYYADSVKGRFTISRDNAKNTVYLQMNSLKPEDTAVYYCAARRVSRGNSKFDYYWGQGTQVTVSS,high polyreactivity
9,QVQLVESGGGLVQAGGSLRLSCAASGRIFCTNAMGWYRHEPGKERELVADITSGGSTNYADSVKGRFTISRDNAKNTVYLQMNSLKPEDTAVYSCAADVIGDLRWYRDEYWGQGTQVTVSS,low polyreactivity
10,QVQLVESGGGLVQAGGSLRLSCAASGRTFRFYAMGWYRQAPGKERELVAGITGGGSTNYADSVKGRFTISRDNAKNTVYLQMNSLKPEDTAVYSCNATIRYYRRGKLYDYWGQGTQVTVSS,high polyreactivity
11,QVQLVESGGGLVQAGGSLRLSCAASGRTFGVNAMGWYRQAPGKERELVAAITKDSGSTNYADSVKGRFTISRDNAKNTVYLQMNSLKPEDTAVYYCAARVWVRGYYWGQGTQVTVSS,low polyreactivity
12,QVQLVESGGGLVQAGGSLRLSCAASGFTFTYYAMGWYRQAPGKERELVAAISGNGGSTYYADSVKGRFTISRDNAKNTVYLQMNSLKPEDTAVYYCNALPKSVGRWYRGDYWGQGTQVTVSS,high polyreactivity
13,QVHLVESGGGLVQAGGSLRLSCAASGFIFTDYAMGWYRQAPGKERELVAAISSGGRTYYADSVKGRFTISRDNAKNTVYLQMNSLKPEDTAVYYCARGGRAEGWGQGTQVTVSS,high polyreactivity
14,QVQLVESGGGLVQAGGSLRLSCAASGFTFPWYAMGWYRQAPGKERELVAAISTSGDSTYYADSVKGRFTISRDNAKNTVYLQMNSLKPEDTAVYYCAARVVRGRYGYWGQGTQVTVSS,high polyreactivity
15,QVQLVESVGGLVQAGGSLRLSCAASGFTFVDNAMGWYRQAPGKERELVAAISWTGVGSTYYADSVKGRFTISRDNAKNTVYLQMNSLKPEETAVYYCAADGLSRGVPDEFDYWGQGTQVTVSS,low polyreactivity
16,QDQHVESGGGLVQAGGSLRLSCAASGSIFWYYAMGWYRQEPGKERELVAAISRSGGSTYYADSVKGRFTISRDNAKNTVYLEMNSLKPEDTAVYYCAAGYSSLRRFGVYYWGQGTQVTVSS,high polyreactivity
17,QVQLVESGGGLVQAGGSLRLSCAASGLIIKWYAMGWYRQAPGKERELVAAITRTGGSTYYADSVKGRFTISRDNAKNTVYLQMNSLKPEDTAVYYCADRPVYFRYIAYYDWTPSFDFWGQGTQVTVSS,low polyreactivity
18,QDQLVESGGGKVQAGGSLRLRCAASGRIFQYYTMVWSRQAPGKERELVAGITRGDRTYADSVKGRFTISRDNAKNTVYLQMNSLKQEDTAVYYCNADVYPYTLALPAGMGYWGQGTQVTVSS,high polyreactivity
19,QVQLVASGGGLVQAGGSLRLSCAASGSTFTQNAMGWDRPAPGQEREVVAAISWSGARTYYADSVKGRFTISRHNAKNTVYLQMNSRKPEDPAVYDCNNYARKRGTTYDYWGHGTQVTVSS,high polyreactivity
20,QVQLVESGGGLVQAGGSLRLSCAAYGRTIRRNAMGWYRQAPGKERELVAGISGSGTITYADSVKGRFTIARDNAKNTVYLQMNSLKPEDTAVYYCAARRKSFYTFYYWGQGTQVTVSS,high polyreactivity
21,QVQLVESGGGLVQAGGSLRLSCAASVYAMGWYRQAPGKERELVAAITDSGSTNYADSVKGRFTISRDNAKNTVYLQMNTLKPEDTAVYYCNADPYYATGSWARLPLYQYDYWGQGTQVTVSS,low polyreactivity
